According to patent publication EP3085709A1 (Genor Biopharma Co., Ltd, dated 2016):
Numbering of substitutions follows the chain as printed. In names and notes the source's numbering stands.

T1: recombinant human RANKL (soluble, Gly136-Asp317, N-terminal 10 His, expressed in CHO cells) (human) (UniProt O14788)
T1 sequence: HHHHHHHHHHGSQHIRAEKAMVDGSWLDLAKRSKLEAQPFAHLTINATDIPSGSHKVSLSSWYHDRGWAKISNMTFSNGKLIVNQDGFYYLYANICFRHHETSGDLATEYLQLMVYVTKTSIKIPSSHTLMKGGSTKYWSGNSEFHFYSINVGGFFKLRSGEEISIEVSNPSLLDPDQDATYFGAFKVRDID

T2: RANK receptor on RAW264.7 cells (mouse (RAW264.7 cells), UniProt O35305 31-625)
T2 sequence (looked up): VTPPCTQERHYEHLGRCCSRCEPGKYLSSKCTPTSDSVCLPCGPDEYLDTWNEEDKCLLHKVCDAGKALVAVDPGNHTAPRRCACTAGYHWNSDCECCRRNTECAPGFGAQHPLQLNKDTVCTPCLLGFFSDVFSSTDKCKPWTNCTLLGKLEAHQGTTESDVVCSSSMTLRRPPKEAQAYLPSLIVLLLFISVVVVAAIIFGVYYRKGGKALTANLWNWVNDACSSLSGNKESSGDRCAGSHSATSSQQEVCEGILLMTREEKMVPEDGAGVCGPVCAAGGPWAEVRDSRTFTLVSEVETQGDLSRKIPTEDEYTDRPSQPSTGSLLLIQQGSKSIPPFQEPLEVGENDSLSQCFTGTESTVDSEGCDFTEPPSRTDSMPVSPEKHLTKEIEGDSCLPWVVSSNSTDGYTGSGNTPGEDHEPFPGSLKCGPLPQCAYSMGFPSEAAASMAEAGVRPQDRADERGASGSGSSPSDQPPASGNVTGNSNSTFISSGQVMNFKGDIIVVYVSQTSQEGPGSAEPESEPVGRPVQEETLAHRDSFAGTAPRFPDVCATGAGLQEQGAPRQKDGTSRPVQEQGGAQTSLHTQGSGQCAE

B1: G8 (antibody, human IgG2, kappa, V domains shown)
VH: QVQLVQSGAELVQPGASVKLSCKASGYTFTTYWLQWVRQTPGQGLEWMGAIYPGPGNTKYTQKFKDRVTITADTSTSTAYMQLNSLRSEDSAVYYCARRGSRRGIAYWGQGTLVTVSA
VL: NIVLTQSPASLSVSLGQRATISCRASESVDSYGRSFMHWYQQRPGQAPKLLIYLASNLESGVPARFSGSGSRTDFTLTISSVEAEDEATYYCQQDNEDPYTFGGGTKLEIKG
B2: G14 (antibody, human IgG2, kappa, V domains shown)
VH: B1 VH with L11V, V12K, Q13K, L20V, T40A, T74E, Q82E, N84S, S91T
VL: DIVMTQSPDSLAVSLGERATINCRASESVDSYGRSFMHWYQQKPGQAPRLLIYLASNLESGVPSRFSGSGSGTDFTLTINSLEAEDAATYYCQQDNEDPYTFGGGTKLEIKG
B3: G10 (antibody, human IgG2, kappa, V domains shown)
VH: B1 VH with V12K, Q13K, T40A, V68F, T76K, R87K
VL: B1 VL with K49R
notes: 293F cells
B4: G15 (antibody, human IgG2, kappa, V domains shown)
VH: B1 VH with L11V, V12K, Q13K, L20V, T40A, T74E, Q82E, N84S, S91T
VL: B1 VL with K49R
notes: expressed in CHO-S cells for Embodiments 23-25
B5: recombinant human RANKL (soluble, Gly136-Asp317, N-terminal 10 His, expressed in CHO cells) (ligand)
chain: T1 sequence
B6: pFL249-H16 scFv clone (scFv, not shown: small tags and cut ends)
scFv: QVQLVQSGAELKKPGASVKLSCKASGYTFTTYWLQWVRQAPGQGLEWMGAIYPGPGNTKYTQKFKDRFTITADKSKSTAYMQLNSLKSEDSAVYYCARRGSRRGIAYWGQGTLVTVSAGGGGSGGGGSGGGGSNIVLTQSPASLAVSLGQRATISCRASESVDSYGRSFMHWYQQRPGQPPTLLIYLASNLESGVPVRFSGSGSRTDFTLTIDPVEADDAATYYCQQDNEDPYTFGGGTKLEIK
B7: pFL249-H16u scFv clone (scFv, not shown: small tags and cut ends)
scFv: B6 scFv with K74T
B8: pFL249-H114 scFv clone (scFv, not shown: small tags and cut ends)
scFv: B6 scFv with K12V, K13Q, A40T, F68V, K74T, K76T, K87R

Columns and labels:
[1] = target: commercial hRANKL standard (R & D Systems) (human) (UniProt O14788); assay: ELISA, commercial hRANKL standard coated 1 µg/ml, RANK-Fc titrated
[2] = target: T1, recombinant human RANKL (soluble, Gly136-Asp317, N-terminal 10 His, expressed in CHO cells) (human); assay: ELISA, recombinant human RANKL coated 1 µg/ml, RANK-Fc titrated
[3] = target: RANK receptor on RAW264.7 cells (mouse (RAW264.7 cells)) (UniProt O35305); assay: cell-based or functional assay
[4] = target: B5; assay: ELISA, hRANKL coated, method of Example 17; antibody from CHO-S cells
[5] = target: B5; assay: cell-based or functional assay
[6] = target: B5; assay: competitive ELISA, RANK-Fc coated, antibody pre-incubated with 0.25 µg/ml hRANKL; Plate#02
[7] = target: B5; assay: competitive ELISA, RANK-Fc coated, method of Example 18; antibody from CHO-S cells
[8] = target: B5; assay: cell-based or functional assay; remark: listed apart in the source
[9] = target: B5; assay: ELISA, hRANKL coated 1 µg/ml; concentration at 50% Bmax; Plate#02
[10] = target: B5; assay: ELISA, hRANKL coated 1 µg/ml; concentration at 50% Bmax; Plate#03
[11] = target: B5; assay: competitive ELISA, RANK-Fc coated, antibody pre-incubated with 0.25 µg/ml hRANKL; third plate (printed Plate#02)
[12] = target: T2, RANK receptor on RAW264.7 cells; assay: cell-based or functional assay
[13] = target: T1, recombinant human RANKL (soluble, Gly136-Asp317, N-terminal 10 His, expressed in CHO cells) (human); assay: ELISA, hRANKL coated 1 µg/ml, scFv supernatant, anti-c-myc detection

EC50 [4] | IC50 for inhibiting cell differentiation of RAW264.7 [5] | IC50 [7] | IC50 (ng/ml) in RAW264.7 cells [8] | OD450 [13] | Molecule | also measured
– | – | – | – | – | RANK-Fc (R & D Systems) (Fc fusion) | EC50 [1]: 0.0056 µg/mL; EC50 [2]: 0.0109 µg/mL
– | – | – | – | – | commercial hRANKL standard (R & D Systems) (from UniProt O14788 140-317) (ligand) | EC50 of inducing RAW264.7 cells to differentiate into osteoclasts (TRAP activity, pNPP) [3]: 35.7 ng/ml
0.00405 µg/mL | 0.329 µg/mL | 0.37 µg/mL | ~573 ng/mL | – | B1 | IC50 [6]: 0.38 µg/mL; EC50 [9]: 0.00276 µg/mL
0.00209 µg/mL | 0.247 µg/mL | 0.16 µg/mL | ~517 ng/mL | – | B2 | EC50 [10]: 0.004 µg/mL; IC50 [11]: 0.12 µg/mL
– | – | – | 695 ng/mL | – | B3 | IC50 [6]: 0.4 µg/mL; EC50 [9]: 0.00285 µg/mL
0.00356 µg/mL | 0.257 µg/mL | 0.25 µg/mL | – | – | B4 | –
– | – | – | – | – | B5 | EC50 of inducing RAW264.7 cells to differentiate into osteoclasts (TRAP activity, pNPP) [12]: 113 ng/ml
– | – | – | – | 1.2 OD450 | B6 | –
– | – | – | – | 1.2 OD450 | B7 | –
– | – | – | – | 1.2 OD450 | B8 | –
